The results in this text go back to patent US10406197B2, “Substances and methods for the use in prevention and/or treatment in Huntington's disease” (AFFIRIS AG, priority 2014, dated 2019).

In assay [1] the test system is bone marrow derived primary mouse macrophages. Nature of the assay: In vitro phagocytosis assay. To be noted: 5 ng/μl antibodies; p9305 beads for PRR13, p9304 beads for C6-17; versus isotype control mouse IgG2a. The assay is classed as cell-based. As for the experimental part:
Isolation and in vitro differentiation of macrophages was essentially performed as described e.g. in Zhang et al. 2008 [PMID: 19016445]. In brief, tibia- and femur-derived bone marrow cells from 8 to 12 weeks old BALB/c mice were divided onto 2-3 10 cm-cell culture dishes at a density of 20-30×10^6 cells per dish, differentiated 4 days in RPMI/10% FCS+P/S in the presence of 20 ng/ml M-CSF (RD-Systems, Cat-No: 416-ML-010), redistributed at day 5 into 24-well tissue culture plates at a density of 150.000 cells/well until day 9. 24 hrs before phagocytosis, cells were starved in 500 μl RPMI-media+10% FCS+P/S in absence of M-CSF. […] Antibody-coated fluorescent peptide-beads were subsequently added to differentiated macrophages for 1 hr at 37° C. (in a volume of 200 ul containing 0.5 ug beads/well) allowing for in vitro uptake by phagocytosis. After washing and scraping the cells in ice cold PBS, cells were washed in FACS-Buffer (1×PBS+1% BSA) and analysed for fluorescence signal by standard FACS procedure.

The test system of assay [2] is caspase 6 cleavage of target peptide spanning caspase region 586 of Huntingtin. Nature of the assay: In vitro caspase 6 cleavage inhibition assay. The class given is biochemical, human. As to conditions: affinity purified polyclonal antibodies 3 ng/μl, mAB C6-17 10 ng/μl; no protection = 100%. As for the experimental part:
Caspase 6 inhibition assays were performed using Maxisorb ELISA plates (Thermo; 439454) whereby 50 μl of 20 nM BSA-coupled peptide (as indicated in FIG. 18) was coated for 1 hour at RT followed by a one hour treatment with 150 μl blocking buffer (PBS, 1% BSA, 0.1% Tween 20), incubation for 1 hour at RT with affinity purified polyclonal sera (3 ng/μl) or affinity purified mABs (10 ng/μl) as indicated, respectively. After several washes with washing buffer (PBS, 0.1% BSA, 0.1% Tween 20), 5 U Caspase 6 enzyme (Enzo; BML SE170-5000) diluted in 1× Caspase 6 Buffer (BioVision; 1068-80) was added to each well and incubated for 30 min at 37° C. Quantification of the newly exposed epitope generated by caspase 6 peptide cleavage that reflected the extent of caspase accessibility was performed by ELISA as described in Example 1 using peptide p7564-induced antibodies for detection of the free C-terminal aspartic acid-containing epitope.

Assay [3] deals with T1, recombinant 610 amino acids N-terminal Huntingtin fragment (recHTT610) (Homo sapiens, UniProt P42858, DUP37-38).
T1 construct: the N-terminal 610 aminoacids of human Huntingtin protein extended by two C-terminal V5 tags; made in house; host or cells: HEK293 freestyle cells, transient transfection with precHTT610; NP-40 lysate captured on an anti-V5 coated plate
Description: Protein capture ELISA against recHTT610. The assay is classed as binding. To be noted: recHTT610 capture ELISA of preselected mAB candidates. As for the experimental part:
A DNA covering the coding region of the N-terminal 610 aminoacids of human Huntingtin protein extended by two C-terminal V5 tags were synthesized and cloned via XbaI and BamHI restriction sites into eukaryotic expression vector pCDH-EF1-MCS IRES Puro (SBI; CatNr. CD532A1) yielding plasmid precHTT610. Cloning procedures were performed according to standard molecular biology procedures essentially as indicated by manufacturers including restriction digestions and ligation reactions (NEB Quick ligase kit; CatNr. M2200L), bacterial transformation followed by clone selection and analysis. […] Protein concentrations were determined using Qubit (Invitrogen; CatNr.Q32866) according to the manufacturer's instructions.
Binding of antibodies to N-terminal fragment HTT610 was determined by a standard protein capture ELISA procedure using Maxisorb™ ELISA plates (Thermo; CatNr. 439454), coated with 50 μl of a 1:5000 rabbit anti V5 mAB (Sigma, CatNr. V8137), blocking with blocking buffer (PBS, 1% BSA, 0.1% Tween 20), capturing of recombinant Huntingtin from HEK cell extracts (100 ng/μl total protein) followed by incubation with several dilutions of mouse anti HTT sera (1:100; 1:300 and 1:900) or with mAB2166 as reference (diluted 1:2000; Millipore, Cat Nr. MAB2166) for 1 hour at RT. […]

Assay [4] relates to Huntingtin-derived peptides (p6773, p7564, p6776 and caspase region 586 peptides). Nature of the assay: Peptide ELISA of hybridoma supernatants and monoclonal antibodies. The assay is classed as binding, human. As for the experimental part: Vaccine-induced immune responses in mice were determined by ELISA using heparin as anticoagulant. ELISA plates (Nunc Maxisorb) were coated with maleimide activated BSA as carrier to which Cystein containing peptides were coupled via stable thioether bonds. For titrations, plasma dilutions were added and peptide-specific antibodies were quantified by biotinylated anti-mouse IgG (Southern Biotech, CatNr. 1034-08) as detection antibody combined with Streptavidin-POD (Roche, CatNr. 1089153) and subsequent color reaction using ABTS. EC50 values were determined using curve fitting with a 4-parameter logistic using GraphPad Prism (GraphPad Software).
For the production and isolation of monoclonal antibodies, the ClonaCell-HY Hybridoma Cloning Kit (STEMCELL technologies, CatNr. 28411) was used according to the instructions of the manufacturer. In brief, hybridoma fusions were performed with myeloma cell line SP2-0 under HAT selection and supernatants were initially screened by peptide ELISA using the immunization peptide, respectively, and an irrelevant control peptide for background determination. […] Selected colonies were picked and analyzed by DNA sequencing on an ABI3130xl Genetic Analyzer.
Background: An ELISA detects its analyte on a solid surface through an enzyme-linked reagent.

Assay [5] deals with T2, recombinant Huntingtin fragment with free aspartic acid 586 at the C-terminus (HTT586) (Homo sapiens, UniProt P42858).
T2 construct: recombinant Huntingtin fragment with free aspartic acid 586 at the C-terminus
Nature of the assay: Protein ELISA with recombinant Huntingtin HTT586 versus HTT610. The assay is classed as binding. To be noted: protein capture ELISA, normalized to mAB 2166. As for the experimental part:
Binding of antibodies to N-terminal fragment HTT610 was determined by a standard protein capture ELISA procedure using Maxisorb™ ELISA plates (Thermo; CatNr. 439454), coated with 50 μl of a 1:5000 rabbit anti V5 mAB (Sigma, CatNr. V8137), blocking with blocking buffer (PBS, 1% BSA, 0.1% Tween 20), capturing of recombinant Huntingtin from HEK cell extracts (100 ng/μl total protein) followed by incubation with several dilutions of mouse anti HTT sera (1:100; 1:300 and 1:900) or with mAB2166 as reference (diluted 1:2000; Millipore, Cat Nr. MAB2166) for 1 hour at RT. ELISA incubations, washing and detection procedures were performed according to standard procedures.
FIG. 12: mAB M1D1 specifically recognizes recombinant Huntingtin fragment with free aspartic acid 586 at the C-terminus stronger than uncleaned recHTT610. Protein ELISA (performed as in Example 1) using recombinant Huntingtin with 610 and 586 amino acids length (HTT610 and HTT586, respectively). Values indicate the ratio of the mAB M1D1 signal (OD; protein capture ELISA as explained in Example 1) to the mAB 2166 control antibody signal. Values were normalized to reference mAB 2166 recognizing an internal epitope present in both fragments as protein loading control.

T1 sequence (P42858 with tags, fused parts or gaps DUP37-38): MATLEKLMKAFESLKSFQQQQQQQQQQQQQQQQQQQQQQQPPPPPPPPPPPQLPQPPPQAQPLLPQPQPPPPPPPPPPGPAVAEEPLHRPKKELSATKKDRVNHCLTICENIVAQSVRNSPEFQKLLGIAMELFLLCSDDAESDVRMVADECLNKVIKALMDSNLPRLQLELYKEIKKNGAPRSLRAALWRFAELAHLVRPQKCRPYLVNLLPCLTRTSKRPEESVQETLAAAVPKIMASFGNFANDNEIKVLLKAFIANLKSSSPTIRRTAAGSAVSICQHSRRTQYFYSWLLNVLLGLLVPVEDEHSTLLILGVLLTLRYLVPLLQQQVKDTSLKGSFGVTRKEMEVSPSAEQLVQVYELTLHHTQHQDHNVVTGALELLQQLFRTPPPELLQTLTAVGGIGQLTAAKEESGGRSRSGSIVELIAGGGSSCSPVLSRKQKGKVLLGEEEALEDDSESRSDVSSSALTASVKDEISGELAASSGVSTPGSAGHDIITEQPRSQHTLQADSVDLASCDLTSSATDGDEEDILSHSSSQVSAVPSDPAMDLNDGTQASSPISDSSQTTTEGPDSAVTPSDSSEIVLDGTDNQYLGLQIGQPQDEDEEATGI
T2 sequence (P42858 1-584): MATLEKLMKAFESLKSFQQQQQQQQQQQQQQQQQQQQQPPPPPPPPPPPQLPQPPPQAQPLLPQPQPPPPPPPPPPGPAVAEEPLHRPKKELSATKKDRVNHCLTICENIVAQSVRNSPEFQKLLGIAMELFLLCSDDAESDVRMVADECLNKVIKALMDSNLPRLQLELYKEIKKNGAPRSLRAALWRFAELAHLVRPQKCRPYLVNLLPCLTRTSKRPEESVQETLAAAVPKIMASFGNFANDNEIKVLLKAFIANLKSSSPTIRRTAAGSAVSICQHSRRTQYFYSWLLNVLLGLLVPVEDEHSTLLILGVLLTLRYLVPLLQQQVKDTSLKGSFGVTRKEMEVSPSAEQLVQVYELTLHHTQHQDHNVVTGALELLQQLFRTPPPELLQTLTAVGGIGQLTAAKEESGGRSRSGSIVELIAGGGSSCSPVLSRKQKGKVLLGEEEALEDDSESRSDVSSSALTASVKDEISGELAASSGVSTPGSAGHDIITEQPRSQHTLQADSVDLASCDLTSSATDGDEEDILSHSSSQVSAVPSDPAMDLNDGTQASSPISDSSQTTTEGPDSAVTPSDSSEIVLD

B1: C6-17: monoclonal antibody, mouse IgG2a, generated by hybridoma technique using peptide p7543 as immunogen; VH/VL SEQ ID No. 60/61 (antibody)
VH: MGWSCIMLFLLSGTAGVLSEVQLQQSGPELVKPGASVKISCKTSGYTFTEYTMHWVKQSHGKSLEWIGGINPNNGGTRYNQKFKGKATLTVDRSSSTAYMELRSLTSEDSAVYYCASLDGRDYWGQGTTLTVSSAKTTAPSVFPLA
light: MVLMLLLLWVSGTCGDIVMSQSPSSLAVSAGEKVTMSCKSSQSLLNSRTRKNYLAWYQQKPGQSPKLLIYWASTRESGVPDRFTGSGSGTDFTLTISSVQAEDLAVYSCKQSYNLLTFGAGTKLELKRADAAPTVSIFPPSSEQLTSGGASVVCFLNNFYPK
modifications: antibody sequence
As for B1, in assay [1], the “phagocytosis of peptide-coated beads (FACS)” value is listed as “increased phagocytosis of beads”. Besides, the “% cleavage of target peptide” value in assay [2] is “reduce cleavage”. Further, the “signal to noise ratio (recHTT610-specific signal : HEK ctrl extracts)” value in assay [3] is given as “best signal to noise ratio”.

B2: M1D1: monoclonal antibody, mouse IgM, generated using peptide p7564 as immunogen; VH/VL SEQ ID No. 64/65 (antibody)
VH: MDFGLSWVFFVVFYQGVHCEVQLVESGGGLVQPKGSLKLSCAASGFTFNTYAMNWVRQAPGKGLEWVARIRSKSNNYATYYADSVKDRFTISRDDSQSMLYLQMNNLKTEDTAMYYCVRHGEYGNPWFAYWGQGTLVTVSAESQSFPNVFPL
light: MKLPVRLLVLMFWIPASSSDVVMTQTPLSLPVSLGDQASISCRSSQSLVHSNGNTYLHWYLQKPGQSPKLLIYKVSNRFSGVPDRFSGSGSGTDFTLKISRVEAEDLGVYFCSQSTHVPYTFGGGTKLEIKRADAAPTVSIFPPSSEQLTSGGASVVCFLNNFYPK
modifications: antibody sequence
Turning to B2, in assay [4] (mAB concentration 1 ng/μl, peptides p7564, p7562, p7552, p7541, p7567, p7568, p7605, p6777), the “recognition of caspase region 586 peptides (OD)” value is reported as “recognizes Huntingtin peptides from the caspase 6 cleavage region of at least 7AA length containing free C-terminal Aspartic Acid”. Moreover, the “p7564 to p6776 OD signal ratio” value in assay [4] (specificity against cleaved peptide p7564, preselected mABs) is reported as “most favorable”. For the same molecule, the “recognition of HTT586 versus recHTT610 (ratio of mAB signal to mAB 2166 control signal)” value in assay [5] was “stronger”.

B3: PRR13: monoclonal antibody, mouse IgG2a, generated by hybridoma technique using peptide p6773 as immunogen; VH/VL SEQ ID No. 62/63 (antibody)
VH: MGWSWVMLFLLSGTGGVLSEVQLQQSAPELVKPGASVKMSCKASGYSFTDFYMKWVKQSHGKGLEWIGDIDPKNGDTFYNQKFKGRATLTVDKSSSTAYMQLNSLTTEDSAVYYCATYYGYTMDYWGQGTSVTVSSAKTTAPSVYPLAPVCGDTTGSSVTLGCLVKGYF
light: MDFQVQIFSFLLISASVIMSRGQIVLTQSPAIMSASLGERVTMTCTASSSVTSSYLHWYQQKPGSSPKLWIYSTSNLASGVPARFSGSGSGTSYSLTISSMEAEDAATYYCHQYRRPPRTFGGGTKLEIKRADAAPTVSIFPPSSEQLTSGGASVVCFLNNFYPR
modifications: antibody sequence
On to B3, for which, in assay [1], the “phagocytosis of peptide-coated beads (FACS)” value is on record as “increased phagocytosis of beads”.
